Results reported in article PMC3234919 (The Journal of Biological Chemistry, 2011).
Substitutions are numbered along the chain they refer to. In names and notes the source's numbering stands.

B1: human peroxiredoxin IV C51A mutant (residues 37-271 of the preprotein) (enzyme, UniProt Q13162 37-271, looked up)
chain: GWETEERPRTREEEAHFYAGGQVYPGEASRVSVADHSLHLSKAKISKPAPYWEGTAVIDGEFKELKLTDYRGKYLVFFFYPLDFTFVCPTEIIAFGDRLEEFRSINTEVVACSVDSQFTHLAWINTPRRQGGLGPIRIPLLSDLTHQISKDYGVYLEDSGHTLRGLFIIDDKGILRQITLNDLPVGRSVDETLRLVQAFQYTDKHGEVCPAGWKPGSETIIPDPAGKLKYFDKLN
B2: human peroxiredoxin IV, wild type, full-length mature protein (residues 37-271 of the preprotein) (enzyme, UniProt Q13162 37-271, looked up)
chain: B1 chain with A15C
B3: human peroxiredoxin IV C245A resolving cysteine mutant, reduced (enzyme, UniProt Q13162 37-271, looked up)
chain: B1 chain with A15C, C209A
B4: human peroxiredoxin IV C245A resolving cysteine mutant, sulfenylated at the peroxidatic cysteine (enzyme, UniProt Q13162 37-271, looked up)
chain: B1 chain with A15C, C209A
modifications: cysteine sulfenic acid at Cys-124 (peroxidatic cysteine)
B5: PrxIII (enzyme, UniProt P30048 62-256, looked up)
chain: APAVTQHAPYFKGTAVVNGEFKDLSLDDFKGKYLVLFFYPLDFTFVCPTEIVAFSDKANEFHDVNCEVVAVSVDSHFSHLAWINTPRKNGGLGHMNIALLSDLTKQISRDYGVLLEGSGLALRGLFIIDPNGVIKHLSVNDLPVGRSVEETLRLVKAFQYVETHGEVCPANWTPDSPTIKPSPAASKEYFQKVNQ

Experiments:
[1] = molecular target: the molecule itself; test: crystal structure
[2] = molecular target: the molecule itself; test: SEC
[3] = molecular target: the molecule itself; test: crystal structure; remark: listed apart in the source

Protein	stoichiometry N [1]	stoichiometry N [2]	also measured
B1	10		
B2		10	
B3	10		
B4			stoichiometry N [3]: 10
B5		2	
